Source: patent publication US10117953B2, “Antibody drug conjugates” (Novartis AG, priority 2013, dated 2018)

Key:
primary human mast cells = assay: Mast cell apoptosis (Caspase-Glo 3/7); type: cell-based; conditions: 0.05-100 nM, 1.6 nM rhSCF, 48 h
Protocol: Primary human mast cells were cultured from peripheral human blood according to the methods described by Saito et al., Nature Protocols 2006; 1(4):2178-2183. […] Following 30 min incubation at RT, luminescence was recorded on the BioTek Synergy plate reader (BioTek, Winooski, Vt.).

[1] = tested on: Mo7e cells (SCF-dependent); assay: Mo7e proliferation assay in presence of SCF; type: cell-based, human; conditions: 10 ng/ml SCF, 5 days
Protocol: (§1) To evaluate the potential antagonistic properties of the naked antibodies and the ability of the antibody drug conjugates (ADCs) to inhibit the proliferation of a cKIT-expressing cell line, MO7e (DSMZ, Catalog # ACC-104, Braunschweig, Del.) were grown in the presence or absence of cKIT ligand, Stem Cell Factor (SCF), for survival. MO7e cells were grown in either 10 ng/ml human granulocyte-macrophage colony-stimulating factor GM-CSF (R&D Systems Cat#215-GM, Minneapolis, Minn.) or 10 ng/ml human Stem Cell Factor SCF (R&D Systems Cat#255-SC) prior to seeding in 96 well plates (Costar Cat #3904, Corning, Tewksbury, Mass.) at 5000 cells/well in 100 μl dilution medium. A duplicate plate was generated for a day 0 measurement and all plates were incubated in a tissue culture incubator at 37° C. with 5% CO2 overnight. […] Assay plates were shaken gently for 20 min and the resulting luminescence intensity was measured using a Perkin Elmer 1450 Microbeta TriLux® plate reader (Perkin Elmer, Waltham, Mass.). […] Following this incubation period, relative cell viability was determined via the addition of Cell titer Glo reagent as described above. The effect of the ADCs on cell proliferation was calculated using the average of the duplicates as follows: (% Inhibition=(ADC or Ab treated)/(untreated)*100) The % inhibition data was fitted to a 4-parameter logistic equation and IC50 values were determined.

[2] = biological target: T1, cKit receptor on normal human CD34+ bone marrow cells (Homo sapiens, UniProt P10721); assay: cKit receptor levels on bone marrow cells by flow cytometry; type: cell-based; conditions: 10 μg/ml
T1 construct: host or cells: normal human CD34+ bone marrow cells (primary)
Protocol: In another internalization experiment, the impact of NEG085 on cKit receptor levels was evaluated on human bone marrow cells. Normal human CD34+ bone marrow cells (All Cells, Cat #ABM022F, Emeryville, Calif.) were thawed and washed with 10 mL of StemPro0-34 SFM medium (Gibco, Life Technologies, Carlsbad, Calif.). Cells were resuspended in 1.25 mL of StemPro-34 SFM medium at 4×10^5 cells/mL and split equally into two tubes. […] 100 μL of cell suspension was collected at each timepoint (0, 15, 30, 60, 120, and 240 min) from each condition, and placed into an ice cold collection tube to cease internalization. Cells were washed with 3 mL of ice-cold FBS stain buffer and resuspended in 100 μL of FBS stain buffer. […] of 104D2-BV421 (mouse anti-human IgG1 k, Biolegend) was added to each tube and incubated on ice for 1 hour. Following another wash with FBS stain buffer, total cKit receptors were measured by flow cytometry by assessing the mean fluorescence intensity of BV421 on a FACS Canto II® (BD Biosciences, San Jose, Calif.).

Mo7e cells = assay: Mo7e proliferation assay with GM-CSF (SCF-independent); type: cell-based, human; conditions: 10 ng/ml GM-CSF, 5 days
Protocol: as §1

Uke-1 cells = assay: ADCC activity in vitro (Calcein release, NK3.3 effector cells); type: cell-based, human; conditions: effector to target ratio 20 to 1
Protocol: In brief, Uke-1 cells were stained with Calcein acetoxy-methyl ester (Calcein-AM; Sigma-Aldrich catalog #17783-5MG, St. Louis, Mo.), washed twice, pipetted into a 96-well microtiterplate (96 well, U-bottomed, clear plastic; Corning Costar, catalog #650 160, Tewksbury, Mass.) at a concentration of 5000 cells per well and pre-incubated for 10 min with a serial dilution of the above mentioned antibodies and proteins (from 50,000 to 0.003 μg per ml) before adding the effector NK3.3 cells for 1 hour in an effector to target ratio of 20 to 1. In order to calculate the antibody specific lysis of the target cells, a parallel incubation of target cells only without antibody or effector cells served as a baseline and negative control, whereas the positive control or maximal lysis or hundred percent specific lysis was determined by lysis of target cells only with a 1% Triton-X 100 solution. […] Following a co-incubation of target and effector cells, the microtiterplate was centrifuged and an aliquot of the supernatant fluid was transferred to another microtiterplate (96 well, flat-bottomed, black with clear bottom; Corning Costar, catalog #3904, Tewksbury, Mass.) and the concentration of free Calcein in solution was determined with a fluorescence counter (Victor 3® multilabel counter, Perkin Elmer, Waltham, Mass.).

T1 sequence (P10721 26-976): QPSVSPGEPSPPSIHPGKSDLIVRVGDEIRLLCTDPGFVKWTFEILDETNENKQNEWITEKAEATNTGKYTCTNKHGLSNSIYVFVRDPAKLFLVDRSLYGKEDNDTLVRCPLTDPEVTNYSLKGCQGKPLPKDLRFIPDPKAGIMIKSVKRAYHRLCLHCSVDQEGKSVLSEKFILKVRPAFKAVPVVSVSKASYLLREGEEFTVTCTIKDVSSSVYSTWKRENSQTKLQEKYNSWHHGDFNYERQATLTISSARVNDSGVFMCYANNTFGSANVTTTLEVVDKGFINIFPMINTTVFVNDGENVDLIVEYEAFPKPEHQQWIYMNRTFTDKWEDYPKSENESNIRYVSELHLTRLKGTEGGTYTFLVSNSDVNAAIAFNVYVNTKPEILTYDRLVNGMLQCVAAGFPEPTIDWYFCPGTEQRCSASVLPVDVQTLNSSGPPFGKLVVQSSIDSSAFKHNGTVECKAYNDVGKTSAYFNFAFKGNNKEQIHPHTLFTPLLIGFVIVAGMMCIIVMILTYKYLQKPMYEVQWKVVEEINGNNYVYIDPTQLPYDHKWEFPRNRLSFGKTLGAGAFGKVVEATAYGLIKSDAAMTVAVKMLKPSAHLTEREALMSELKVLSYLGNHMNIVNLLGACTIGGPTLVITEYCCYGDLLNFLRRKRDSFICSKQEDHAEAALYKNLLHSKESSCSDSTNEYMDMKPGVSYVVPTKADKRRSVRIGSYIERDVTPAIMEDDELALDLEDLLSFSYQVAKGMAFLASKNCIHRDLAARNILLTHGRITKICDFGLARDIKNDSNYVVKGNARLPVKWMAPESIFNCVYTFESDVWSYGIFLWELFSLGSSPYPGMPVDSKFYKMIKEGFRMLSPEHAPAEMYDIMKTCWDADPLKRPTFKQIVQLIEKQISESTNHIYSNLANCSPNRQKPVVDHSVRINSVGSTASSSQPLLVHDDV

B1: NEG085: anti-cKIT antibody of Table 1; VH SEQ ID NO 82, VL SEQ ID NO 91; derived from 9P3 (antibody, V domains shown)
VH: EVQLVESGGGLVQPGGSLRLSCAASGFAFSGYYMAWVRQAPGKGLEWVANINYPGSSTYYLDSVKGRFTISRDNAKNSLYLQMNSLRAEDTAVYYCARGDYYGTTYWYFDVWGQGTTVTVSS
VL: DIQMTQSPSSLSASVGDRVTITCRASQSISSYLNWYQQKPGKAPKLLIYYTSRLQSGVPSRFSGSGSGTDFTLTISSLQPEDFATYYCQQGRRLWSFGGGTKVEIK
Primary human mast cells
  mast cell apoptosis: do not lead to apoptosis of human primary mast cells ex vivo
[1]
  inhibition of cell proliferation: do not have this effect
[2]
  time of the bulk of the internalization: 15 min
[2]; 0-240 min
  cKIT internalization: rapidly internalized
Mo7e cells
  effect on cell proliferation: no detrimental effect on cell proliferation
Uke-1 cells
  ADCC: not able to induce ADCC even at higher concentrations
